Patent CN117396506A (NOVARTIS AG, dated 2024)
Each block holds one binder with its values, some of them ahead of it.

Experiments:
重组人IL-18 = target: T1, 重组人IL-18 (human, UniProt Q14116 37-193); test: SET, single-target binding assay
T1 construct: In the LPS/IL-12 assays the IL-18 is the native cytokine made by the blood cells; also called huIL-18; human IL-18

重组人IL-1β = target: T2, 重组人IL-1β (human, UniProt P01584 117-269); test: solution equilibrium titration (SET), single-target binding assay, MSD ECL read-out; mean KD
T2 construct: In the LPS/IL-12 assays the IL-1β is the native cytokine made by the blood cells; also called huIL-1β; IL-1b

- binding result (重组人IL-18): binds
B1: mAb1 (antibody, human IgG1, lambda, L234A L235A, V domains shown)
VH: EVQLVQSGAEVKKPGSSVKVSCKASGGTFKSYAISWVRQAPGQGLEWMGNIIPMTGQTYYAQKFQGRVTITADESTSTAYMELSSLRSEDTAVYYCARAAYHPLVFDNWGQGTLVTVSS
VL: DIVLTQPPSVSGAPGQRVTISCSGSSSNIGNHYVNWYQQLPGTAPKLLIYRNNHRPSGVPDRFSGSKSGTSASLAITGLQSEDEADYYCQSWDYSGFSTVFGGGTKLTVLG
notes: Human anti-IL-18 antibody, bivalent mAb; also called IL-18抗体mAb1

- Kd (重组人IL-1β): 0.6 pM
B2: mAb2 (antibody, human IgG1, kappa, V domains shown)
VH: QVQLVESGGGVVQPGRSLRLSCAASGFTFSVYGMNWVRQAPGKGLEWVAIIWYDGDNQYYADSVKGRFTISRDNSKNTLYLQMNGLRAEDTAVYYCARDLRTGPFDYWGQGTLVTVSS
VL: EIVLTQSPDFQSVTPKEKVTITCRASQSIGSSLHWYQQKPDQSPKLLIKYASQSFSGVPSRFSGSGSGTDFTLTINSLEAEDAAAYYCHQSSSLPFTFGPGTKVDIKR
notes: Human anti-IL-1β antibody, bivalent mAb; also called IL-1β抗体mAb2
